The supplement of paper PMC9170038

Tested on: MS2 coat protein
Assay: apparent KD of MS2 coat protein; designed switch direction (-1 OFF switch, 1 ON switch): -1; higher = weaker reporter binding
In short: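 Transcription of designed RNA switches on Illumina chips was done by stalled E. coli RNA polymerase. SNAP-549-labelled MS2 coat protein was then titrated in doubling steps from 0.7 or 1.5 nM to 3 µM, with steps of 0.8–1.5 h at the lowest and 10–20 min at the highest concentration. The per-design median over clusters of curve-fitted normalised fluorescence is reported as apparent KD.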

[1] = input ligand: microRNA oligo, concentration not stated
[2] = Eterna round: R95, input ligand: microRNA oligo, concentration not stated

Row | Sequence | apparent KD of MS2 coat protein (input ligand: FMN 200 uM) [nM] | apparent KD of MS2 coat protein (input ligand: none) [nM] | apparent KD of MS2 coat protein [1] [nM] | apparent KD of MS2 coat protein (Eterna round: R95, input ligand: FMN 200 uM) [nM] | apparent KD of MS2 coat protein [2] [nM] | apparent KD of MS2 coat protein (Eterna round: R95, input ligand: none) [nM]
1 | GUUUUACAUGAGGAUCACCCAUGUGAGGAUAUAUUAUUAAUAGUGAUAAUUAUUGGUGGUAGAAGGCGCGUGAU [JR_Exc1_Sub012] (Eterna round: R97, puzzle: Exclusion 1) | 50.9 | 53.1 |  |  |  | 
2 | GUUUUGAGACGGAGAUCCGACAUGAGGAUCACCCAUGUCUCACAAGCUUUUUGCUCGUCUUAUACUCCUCUGUUCUC [Elimod 44 - Jieux - Sensor, turn-off variant 1] (Eterna round: R97, puzzle: Sensor, turn-off variant 1) | 17 | 17.6 |  |  |  | 
3 | UAAAACCGGUGAGGAUAUUUUUAAUAGAGCUUUAUGAUAUACAUGAGGAUCACCCAUGUUACGUUAAAGAAGGCAUCGGAAAAU [Mat - Exclusion NG 2 - Mod of JL - D99] (Eterna round: R96, puzzle: Exclusion NG 2) | 13.7 | 19.9 | 14.5 |  |  | 
4 | UAAAAGGUAGGAUAUACGAAAAAAAAGGGUAGAAAAAAAACACAUGAGGAUCACCCAUGUAGAAGGACCAAAAG [salish99_ex2_r3_048] (puzzle: Exclusion 2) |  |  |  | 64.3 | 29.8 | 30.1
5 | UAAAAUUUAGGAUAUGCGUGAGAUAGAGUACGAUGAGCUGCACAUGAGGAUCACCCAUGUAGAAGGAAAUUUUA [-11, -8.6 kcal, 36% A] (Eterna round: R97, puzzle: Exclusion 2) | 58 | 31.2 |  |  |  | 
6 | UAAACAAGCUUAAGAUCCUACAUGAGGAUCACCCAUGUGCUCGUCUUAUAAGGUACUGUGACGAAAGUCACGGUACC [JL TOV1 3.06] (Eterna round: R97, puzzle: Sensor, turn-off variant 1) | 226 | 194 |  |  |  | 
7 | UAAACAUGGAUAUAACAGUACAUGAGGAUCACCCAUGUUAAUACGAUAGAUUAUAACAAGCUUUUUUGUCGUCUUAA [Cooked Book] (Eterna round: R97, puzzle: Sensor, turn-off variant 1) | 116 | 85.4 |  |  |  | 
8 | UAAAGAUAAGGAUAUUGAAGGUUCGACAUGAGGAUCACCCAUGUUAUGUUGGAAAAGGGACAAGAAGGUAUGAAAU [salish99_ex5_r4_207] (Eterna round: R97, puzzle: Exclusion 5) | 35.9 | 37 |  |  |  | 
9 | UAAAGUAUAUAGGAUAUCUAGCUGGUAACAGCUAGAGAAGGAUGUACAUGAGGAUCACCCAUGUAAAUCAUGAA [Ex6/16-A2] (Eterna round: R97, puzzle: Exclusion 6) | 20.8 | 17.3 |  |  |  | 
10 | UAAAUGUGAGGAUAUCAGGUGUGCUAGCGUACUGGUACAUCUGAGAAGGCACAUGAGGAUCACCCAUGUUCCUU [Mat - Exclusion 4 - Mod of JL - D49] (puzzle: Exclusion 4) |  |  |  |  | 16.7 | 
11 | UAACAAAUGGUCAGGAUAUCAUUCCCGGCCCAGAGUGAGAAGGGACAUGAGGAUCACCCAUGUGUGAUUCUCAU [jl-ex4-4.55 ViennaUCT mod] (Eterna round: R97, puzzle: Brourd's mod of Exclusion 4) | 128 | 97.1 |  |  |  | 
12 | UAACAUGUAGAAGGAUAUCUGCACGAUUAGUGCAGAGAAGGUCUAACAUGAGGAUCACCCAUGUAGAUCAUUAAUUAAUUAAUU [ENG1/8-B1] (Eterna round: R96, puzzle: Exclusion NG 1) | 15.2 | 12.4 | 8.43 |  |  | 
13 | UAAGAUUACCGAGGAUAUGGUGGUUUCUAUUAACCAGAAGGCGGACUCAACAUGAGGAUCACCCAUGUAUAAAGGGUAUUAGAU [Ex NG1 #8] (Eterna round: R96, puzzle: Exclusion NG 1) | 134 | 144 | 112 |  |  | 
14 | UAAGUGCUGCGAGGAUAUACAUGAGGAUCACCCAUGUGGAUGUCUGAGGCUUUGCCUCAGACGAUGUAGAAGGCGCAGUACAAU [Mat - Exclusion NG 2 - Mod of JL - D51] (Eterna round: R96, puzzle: Exclusion NG 2) | 77.3 | 20.6 | 11.1 |  |  | 
15 | UAAGUUUACCGAGGAUAUGGUUUUUCCUAUUAACCAGAAGGCGGACUCAACAUGAGGAUCACCCAUGUAUAAAGGGUAUUAGGU [JR_ExcNG1_Sub044] (Eterna round: R96, puzzle: Exclusion NG 1) | 88.5 | 74.2 | 68 |  |  | 
16 | UAAGUUUUGGUAGGAUAUACUUUAAAUUUCUCUAUCCAUACAUGAGGAUCACCCAUGUUUACAUUGUAGAAGGACCUUUAUGUU [JR_ExcNG2_Sub057] (Eterna round: R96, puzzle: Exclusion NG 2) |  |  | 30.2 |  |  | 
17 | UAAUAAAGUGUGAGGAUAUGCUGGUCCUUAGAUCAGCAGAAGGCACAUGAGGAUCACCCAUGUAAUAUAUAAAU [Mat - Exclusion 4 - JL Mod - D56] (Eterna round: R96, puzzle: Brourd's mod of Exclusion 4) |  |  | 29 |  |  | 
